B1: PCP-8×: class I slncRNA with eight PCP binding hairpins (SEQ ID NO: 27) (nucleic acid)
chain: GAGAAACGTTTCGACATTATATGGAATGCGAAACACGGAGGATGCGGGAAACATGAAGATCACCCATGTTCGCTTAACCATGGATAGGGATCACCCATGTTGCGGTGGTGCGTCAACCAGAGATTTCATATGGGAAACTCTGGGACACGCTGTATTTATACATGAGGATCACCATGTGTGCTTAAATATGGGTAATTCCAGTTTATATGGAAACGGAATTAGGCTAGAGCATGGCGGTATTGAGTTCGGGTTTGAAACGACAATATATGGATTGCGTTTTGGGGCACGCCGTCTGGAAAGGAGATTATATGAAATCCCTTTGCGCGCAACCGGGTAGATACGAGTCAATATGGTGACCGTACCTTGGTGGGGAAGCGATAAGCACATTATAAGGAATGGCTTAGTGCTAGACCCTGGTCTTTTCGAGAAAATATGGTTTCCGAAAATGGGTGGGAGGTAGAGGGATTCTCGCGAGAAGAA
B2: PCP-4×/MCP-4×: class II slncRNA with four PCP binding sites spaced by non-PCP hairpins (SEQ ID NO: 26) (nucleic acid)
chain: GAGAAACGTTTCGACATTATATGGAATGCGAAAGTGGAACGTAATGGACATGAAGACGATTACGCTTCACACGGAGGATGCGGGAAACATGAAGATCACCCATGTTCGCTTAACCATGGATAGGGATCACCCATGTTGCGGTGGTGCGTCAACCAGAGATTTCATATGGGAAACTCTGGGACACGCTGTATTTATACATGAGGATCACCATGTGTGCTTAAATATGGGTAAGTTGACCATTAGGCAACTGTAAGATGCTCCGGTTAATTCCAGTTTATATGGAAACGGAATTGATGTACCGTTGAGCAAGAACACGATTACGGTTCTTCGATTAGATATGGTTTAAACGACAATATATGGATTGCGTTTTGGGGCACGCCGTCTGGAGAAGACCATTAGGCTTCTTTACTGCGATGGGTGGGAGGTAGAGGGATTCTCGCGAGAAGAA
B3: PCP-4×: class I slncRNA with four PCP binding hairpins (SEQ ID NO: 24) (nucleic acid)
chain: GAGAAACGTTTCGACATTATATGGAATGCGAAACACGGAGGATGCGGGAAACATGAAGATCACTCATGTTCGCTTAACCATGGATAGGGATCACCCATGTTGCGGTGGTGCGTCAACCAGAGATTTCATATGGGAAACTCTGGGACACGCTGTATTTATACATGAGGATCACCATGTGTGCTTAAATATGGGTAATTCCAGTTTATATGGAAACGGAATAAGATTAGATATGGTTTAAACGACAATATATGGATTGCGTTTTGGGGCACGCCGTCTGGTTACTGCGATGGGTGGGAGGTAGAGGGATTCTAAGCTTAAGA
B4: PCP-3×/MCP-3×: class II slncRNA with three PCP binding sites spaced by non-PCP hairpins (SEQ ID NO: 25) (nucleic acid)
chain: GAGAAACGTTTCGACATTATATGGAATGCGAAAGTGGAACGTAATGGACATGAAGACGATTACGCTTCACACGGAGGATGCGGGAAACATGAAGATCACCCACGCTTAACCATGGATAGGGATCACCCATGTTGCGGTGGTGCGTCAACCAGAGATTTCATATGGGAAACTCTGGGACACGCTGTATTTATACATGAGGATCACCATGTGTGCTTAAATATGGGTAAGTTGACCATTAGGCAACTGTAAGATGCTCCGGTTAATTCCAGTTTATATGGAAACGGAATTGATGTACCGTTGAGCAAGAACACGATTACGGTTCTTCGATTAGATATGGGGTGGGAGGTAGAGGGATTCTCGCGAGAAGA
B5: PCP-3×: class I slncRNA with three PCP binding hairpins (SEQ ID NO: 23) (nucleic acid)
chain: GAGAAACGTTTCGACATTATATGGAATGCGAAACACGGAGGATGCGGGAAACATGAAGATCACTCATGTTCGCTTAACCATGGATAGGGATCACCCATGTTGCGGTGGTGCGTCAACCAGAGATTTCATATGGGAAACTCTGGGACACGCTGTATTTATACATGAGGATCACCATGTGTGCTTAAATATGGGTAATTCCAGTTTATATGGAAACGGA
B6: PCP-14×/MCP-15×: class II slncRNA with fourteen PCP binding sites spaced by hairpins that do not bind PCP (SEQ ID NO: 28) (nucleic acid)
chain: GAGAAACGTTTCGACATTATATGGAATGCGAAAGTGGAACGTAATGGACATGAAGACGATTACGCTTCACACGGAGGATGCGGGAAACATGAAGATCACCCATGTTCGCTTAACCATGGATAGGGATCACCCATGTTGCGGTGGTGCGTCAACCAGAGATTTCATATGGGAAACTCTGGGACACGCTGTATTTATACATGAGGATCACCATGTGTGCTTAAATATGGGTAAGTTGACCATTAGGCAACTGTAAGATGCTCCGGTTAATTCCAGTTTATATGGAAACGGAATTGATGTACCGTTGAGCAAGAACACGATTACGGTTCTTCGATTAGATATGGTTTAAACGACAATATATGGATTGCGTTTTGGGGCACGCCGTCTGGAGAAGACCATTAGGCTTCTTTACTGCGACCGCAATAAAAGGAGATTATATGAAATCCCTTTGCGCGCAACCGGGTAGAAGATCACCATTAGGGATCTGTAACTCACGGCGCTATTACGAGTCAATATGGTGACCGTAAAGCTAGGGCATGTGCCAGAAGAGCATTAGCCTTCTCCTTGGTGGGGAAGCGATAAGCACATTATAAGGAATGGCTTAAAGTGGTGCGGCGGGGGACTTGACCATTAGGCAAGTGTGCTAGACCCTGGTCTTTTCGAGAAAATATGGTTTCCGAAAGAACTATACGAAGTGACATGCGAGGATTACCCGCATATGGTGCAAATGGGAGAATTGGAGTAAATATGGTTACCCAATAGGCTAGAGCATGACGGCAGTGAGAATTATCCACTGGTTAGCGGGTTACCGAGATTGCACATTATATGGAATGGCAATTGATTCATGCCGGTCGTTTGTGAGGAGTACCCACAAAATGGGAGGGTGCTATATAACCAGGTTATATGCAACCGGTTAGGCCGTTGTGTTAGTTTAGTTCAGCATTAGCGAACTGTGCAAGACCCGGTGGCTAAGGAGTTTATATGGAAACCCTTAGCCCTCGAGCATGCTAACATGAGGATTACCCATGTGATGGGTTTGAAACGTGCAATTATTTGATATGGCAAAAATTGGGTAGGGCATGGCTGCAGCGTGAGAATTATCCACGCTAGGCTAGAGCATGGCGGTATTGAGTTCGGGTTTGAGATGACCATTAGGCATCTGTGCTAGAGCATGCGAAAACGACATAATATGGTATGCGTTTTGGGGTGCTAGTATACCACATGATGAGCACACATGTATGGGTGGGAGGTAGAGGGATTCTCGCGAGAAGA

How the values were obtained:
[1] = Temporal tracking of individual SRNP granules in vitro (burst analysis); format: physicochemical; conditions: SRNP granules with tdPCP-mCherry, 60 minutes tracking
Protocol: To test whether the synthetic granules display this characteristic, we tracked the fluorescence intensity of each granule in a given field-of-view for 60 minutes. The brightness of each granule was analyzed at every time point using a customized analysis algorithm (see Supplementary Methods). The resulting signals are either decreasing or increasing in overall intensity, and dispersed within them are sharp variations in brightness, that are also either increasing or decreasing. Next, we employed a statistical threshold which flagged these signal variation events, or “signal bursts”, whose amplitude was determined to not be part of the underlying signal distribution (p-value<1e-3) (See Supplementary Methods for definitions of bursts, algorithm details, and relevant numerical controls). The events were classified as either increasing bursts (green), decreasing bursts (red), or non-classified segments (blue), which are segments where molecular movement cannot be discerned from the noise (FIG. 8A). For each detected burst, its amplitude (A intensity) and duration (A time) were measured, in addition to measuring the time between bursts and the order of their appearance. In FIG. 8B the distributions of amplitudes for all three event types were plotted, obtained from ˜156 signal traces, each gathered from a different granule composed of PCP-14×/MCP-15× and tdPCP-mCherry. We observe a bias towards negative burst or shedding events. Assuming an interpretation that fluorescent burst events correspond to insertion and shedding events of slncRNA-CP complexes into or out of the synthetic granules, the amplitude bias towards negative events is consistent with RNA degradation and lack of transcription within the in vitro suspension, leading to a net shedding of slncRNA molecules out of the granules over time.
The tracking data, (x,y,t coordinates of the bright spots centroids), together with the raw microscopy images were fed to a custom built Matlab (The Mathworks, Natick, MA) script designed to normalize the relevant spot data. Normalization was carried out as follows: for each bright spot, a 14-pixel wide sub-frame was extracted from the field of view, with the spot at its center. Each pixel in the sub-frame was classified to one of three categories according to its intensity value. […]
We assume the total fluorescence is comprised of three distinct signal processes: RNP granule fluorescence, background fluorescence and noise. We further assume that background fluorescence is slowly changing, as compared with granule fluorescence which depends on the dynamic and frequent insertion and shedding events occurring in the droplet. […] To identify such shifts in the base-line fluorescence intensity, we use a moving-average filter of 13 points (i.e., 2 minutes) to smooth the data. […]

[2] = In vitro slncRNA and slncRNA-protein granule formation (fluorescence microscopy); format: physicochemical; conditions: for Poisson parameter λ best fit of condensate fluorescence intensity distribution: slncRNA-only condensates
[3] = SRNP granules with tdPCP-mCherry

Row | Molecule | ratio between mean granule fluorescence and mean burst amplitude, red channel (protein) [1] | Poisson parameter λ best fit of condensate fluorescence intensity distribution [2] | further results
1 | B1 | ~2 |  | 
2 | B2 | approximately equal to that of the green channel |  | 
3 | B3 |  | 0 | 
4 | B4 | approximately equal to that of the green channel |  | 
5 | B5 |  |  | formation of fluorescent condensates, slncRNA only ([2]; 8.5 nM slncRNA, granule forming buffer, 1 hour room temperature): no such structures were detected; median mCherry fluorescence of SRNP granules relative to PCP-14×/MCP-15× granules [2, 3]: half as bright; granule formation / colocalization with tdPCP-mCherry ([2]; slncRNA plus 25 nM tdPCP-mCherry): witnessed in the presence of the protein
6 | B6 | approximately equal to that of the green channel | 3-5 | median mCherry fluorescence of SRNP granules, brighter than PCP-4×/MCP-4× granules [2, 3]: ~3 times; median mCherry fluorescence of SRNP granules, brighter than PCP-8× granules [2, 3]: > 2 fold; slncRNA and protein concentrations at which puncta like structures were detected ([2]; SRNP granules with tdPCP-mCherry, both components varied over two orders of magnitude): ≥ 100 ng/µL
